Measured values: IntAct's records for PubMed 22801494

B1: Interferon-induced, double-stranded RNA-activated protein kinase (Homo sapiens), P19525 (parent)
chain: MAGDLSAGFFMEELNTYRQKQGVVLKYQELPNSGPPHDRRFTFQVIIDGREFPEGEGRSKKEAKNAAAKLAVEILNKEKKAVSPLLLTTTNSSEGLSMGNYIGLINRIAQKKRLTVNYEQCASGVHGPEGFHYKCKMGQKEYSIGTGSTKQEAKQLAAKLAYLQILSEETSVKSDYLSSGSFATTCESQSNSLVTSTLASESSSEGDFSADTSEINSNSDSLNSSSLLMNGLRNNQRKAKRSLAPRFDLPDMKETKYTVDKRFGMDFKEIELIGSGGFGQVFKAKHRIDGKTYVIKRVKYNNEKAEREVKALAKLDHVNIVHYNGCWDGFDYDPETSDDSLESSDYDPENSKNSSRSKTKCLFIQMEFCDKGTLEQWIEKRRGEKLDKVLALELFEQITKGVDYIHSKKLIHRDLKPSNIFLVDTKQVKIGDFGLVTSLKNDGKRTRSKGTLRYMSPEQISSQDYGKEVDLYALGLILAELLHVCDTAFETSKFFTDLRDGIISDIFDKKEKTLLQKLLSKKPEDRPNTSEILRTLTVWKKSPEKNERHTC

Variants of: B1
Conditions: with nlrp3_human NLRP3, Q96P20
nlrp3_human NLRP3, Q96P20, sequence (Q96P20 whole entry): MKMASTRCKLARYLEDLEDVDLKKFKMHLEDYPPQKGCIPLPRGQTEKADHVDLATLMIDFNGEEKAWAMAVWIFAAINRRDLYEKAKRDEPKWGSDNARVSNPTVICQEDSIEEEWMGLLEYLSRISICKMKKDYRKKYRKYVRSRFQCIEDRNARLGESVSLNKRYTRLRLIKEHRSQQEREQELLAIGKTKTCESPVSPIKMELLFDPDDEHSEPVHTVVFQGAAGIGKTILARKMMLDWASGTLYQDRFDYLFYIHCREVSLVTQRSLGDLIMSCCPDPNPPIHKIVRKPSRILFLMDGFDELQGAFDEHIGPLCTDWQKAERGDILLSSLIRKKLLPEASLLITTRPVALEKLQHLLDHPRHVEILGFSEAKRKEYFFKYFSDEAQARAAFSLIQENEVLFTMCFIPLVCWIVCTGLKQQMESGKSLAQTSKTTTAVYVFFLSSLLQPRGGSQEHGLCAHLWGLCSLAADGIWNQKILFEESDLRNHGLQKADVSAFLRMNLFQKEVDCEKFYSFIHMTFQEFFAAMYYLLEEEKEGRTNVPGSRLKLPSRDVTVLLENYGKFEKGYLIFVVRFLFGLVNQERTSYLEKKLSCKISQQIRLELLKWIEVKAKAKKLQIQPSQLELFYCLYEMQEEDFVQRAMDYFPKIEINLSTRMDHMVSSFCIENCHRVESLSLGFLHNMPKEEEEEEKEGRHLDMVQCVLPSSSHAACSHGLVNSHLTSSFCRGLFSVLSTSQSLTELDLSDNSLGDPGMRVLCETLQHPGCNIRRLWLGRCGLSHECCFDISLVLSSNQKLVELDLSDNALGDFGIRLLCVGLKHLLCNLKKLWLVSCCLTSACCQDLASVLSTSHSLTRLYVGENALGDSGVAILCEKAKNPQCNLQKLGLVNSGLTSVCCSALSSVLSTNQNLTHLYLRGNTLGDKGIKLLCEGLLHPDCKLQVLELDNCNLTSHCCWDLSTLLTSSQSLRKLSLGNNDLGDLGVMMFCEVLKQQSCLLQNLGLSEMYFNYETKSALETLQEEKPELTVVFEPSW

| Variant | effect of a mutation on the interaction |
| --- | --- |
| K296R | disrupting interaction strength |
